Stoichiometry N data for two substances are collected here from publication PMC12623717.

The target in test [1] is Rotavirus strain SA11 nonstructural protein 2, wildtype, untagged (NSP2WT) (rotavirus strain SA11). The test can be described thus: crystal structure; sitting drop vapor diffusion, 20 °C; protein ~8 mg/mL in 10 mM Tris-HCl pH 7.2, 50 mM NaCl, 1 mM DTT; reservoir 100 mM Tris-HCl pH 7.5, 0.2 M magnesium acetate, 12% PEG6K; space group I422, 1 molecule per asymmetric unit, octamer with D4 symmetry.

In test [2] the target is Rotavirus strain SA11 nonstructural protein 2 with the K294E change, untagged (NSP2 K294E) (rotavirus strain SA11). Described as above.

A word on the stoichiometry N: it is the number of molecules, sites or subunits per partner or assembly.

Substance “Rotavirus strain SA11 nonstructural protein 2, wildtype, untagged (NSP2WT) (natural protein)” displayed a stoichiometry N in test [1] of 8.

The substance “Rotavirus strain SA11 nonstructural protein 2 with the K294E change, untagged (NSP2 K294E) (natural protein)” registered a stoichiometry N in test [2] of 8.
